{"source": "IntAct's records for PubMed 29039417", "parents": {"B1": {"name": "BBSome complex member BBS5 (Homo sapiens), Q8N3I7 (parent)", "chain": "MSVLDALWEDRDVRFDLSAQQMKTRPGEVLIDCLDSIEDTKGNNGDRGRLLVTNLRILWHSLALSRVNVSVGYNCILNITTRTANSKLRGQTEALYILTKCNSTRFEFIFTNLVPGSPRLFTSVMAVHRAYETSKMYRDFKLRSALIQNKQLRLLPQEHVYDKINGVWNLSSDQGNLGTFFITNVRIVWHANMNDSFNVSIPYLQIRSIKIRDSKFGLALVIESSQQSGGYVLGFKIDPVEKLQESVKEINSLHKVYSASPIFGVDYEMEEKPQPLEALTVEQIQDDVEIDSDGHTDAFVAYFADGNKQQDREPVFSEELGLAIEKLKDGFTLQGLWEVMS", "partner": "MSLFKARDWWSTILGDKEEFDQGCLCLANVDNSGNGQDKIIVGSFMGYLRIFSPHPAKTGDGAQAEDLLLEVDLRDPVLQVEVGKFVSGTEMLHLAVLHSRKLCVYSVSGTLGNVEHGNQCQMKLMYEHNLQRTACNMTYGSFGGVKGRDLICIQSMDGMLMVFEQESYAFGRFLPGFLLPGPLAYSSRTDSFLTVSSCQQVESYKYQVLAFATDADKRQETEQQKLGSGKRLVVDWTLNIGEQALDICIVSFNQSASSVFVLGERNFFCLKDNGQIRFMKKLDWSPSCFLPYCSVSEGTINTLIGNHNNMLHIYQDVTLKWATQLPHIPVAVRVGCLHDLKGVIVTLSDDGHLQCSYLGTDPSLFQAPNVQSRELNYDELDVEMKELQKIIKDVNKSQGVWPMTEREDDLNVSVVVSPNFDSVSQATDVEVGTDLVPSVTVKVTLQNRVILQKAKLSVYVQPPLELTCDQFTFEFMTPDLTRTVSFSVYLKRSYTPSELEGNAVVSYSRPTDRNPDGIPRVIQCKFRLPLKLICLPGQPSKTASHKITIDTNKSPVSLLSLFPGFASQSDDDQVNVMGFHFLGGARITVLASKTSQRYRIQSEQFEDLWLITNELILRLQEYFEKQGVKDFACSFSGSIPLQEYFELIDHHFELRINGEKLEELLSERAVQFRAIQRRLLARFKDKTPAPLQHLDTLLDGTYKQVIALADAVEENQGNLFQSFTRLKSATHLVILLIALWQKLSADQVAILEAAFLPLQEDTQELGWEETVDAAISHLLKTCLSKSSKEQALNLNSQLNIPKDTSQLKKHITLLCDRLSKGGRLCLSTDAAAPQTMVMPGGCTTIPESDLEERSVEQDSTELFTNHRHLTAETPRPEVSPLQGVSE"}}}
{"variants_of": "B1", "settings": "with pthb1_human BBS9, Q3SYG4"}
{"variant": "MSVLDALWEDRDVRFDLSAQQMKTRPGEVLIDCLDSIEDTKGNNGDRGRLLVTNLRILWHSLALSRVNVSVGYNCILNITTRTANSKLRGQTEALYILTKCNSTRFEFIFTNLVPGSPRLFTSVMAVHRAYETSKMYRDFKLRSALIQNKQLRLLPQEHVYDKINGVWNLSSDQGNLGTFFITNVRIVWHANMNDSFNVSIPYLQIRSIKIRDSKFGLALVIESSQQSGGYVLGFKIDPVEKLQESVKEINSLHKKYSASPIFGVDYEMEEKPQPLEALTVEQIQDDVEIDSDGHTDAFVAYFADGNKQQDREPVFSEELGLAIEKLKDGFTLQGLWEVMS", "note": "[V256K]", "effect of a mutation on the interaction": "with no effect"}
{"variant": "MSVLDALWEDRDVRFDLSAQQMKTRPGEVLIDCLDSIEDTKGNNGDRGRLLVTNLRILWHSLALSRVNVSVGYNCILNITTRTANSKLRGQTEALYILTKCNSTRFEFIFTNLVPGSPRLFTSVMAVHRAYETSKMYRDFKLRSALIQNKQLRLLPQEHVYDKINGVWNLSSDQGNLGTFFITNVRIVWHANMNDSFNVSIPYLQIRSIKIRDSKFGLALVIESSQQSGGYVLGFKIDPVEKLQESVKEINSLHKAYSASPIFGVDYEMEEKPQPLEALTVEQIQDDVEIDSDGHTDAFVAYFADGNKQQDREPVFSEELGLAIEKLKDGFTLQGLWEVMS", "note": "[V256A]", "effect of a mutation on the interaction": "with no effect"}
{"variant": "MSVLDALWEDRDVRFDLSAQQMKTRPGEVLIDCLDSIEDTKGNNGDRGRLLVTNLRILWHSLALSRVNVSVGYNCILNITTRTANSKLRGQTEALYILTKCNSTRFEFIFTNLVPGSPRLFTSVMAVHRAYETSKMYRDFKLRSALIQNKQLRLLPQEHVYDKINGVWNLSSDQGNLGTFFITNVRIVWHANMNDSFNVSIPYLQIRSIKIRDSKFGLALVIESSQQSGGYVLGFKIDPVEKLQESVKEINSLHKEYSASPIFGVDYEMEEKPQPLEALTVEQIQDDVEIDSDGHTDAFVAYFADGNKQQDREPVFSEELGLAIEKLKDGFTLQGLWEVMS", "note": "[V256E]", "effect of a mutation on the interaction": "with no effect"}
{"variant": "MSVLDALWEDRDVRFDLSAQQMKTRPGEVLIDCLDSIEDTKGNNGDRGRLLVTNLRILWHSLALSRVNVSVGYNCILNITTRTANSKLRGQTEALYILTKCNSTRFEFIFTNLVPGSPRLFTSVMAVHRAYETSKMYRDFKLRSALIQNKQLRLLPQEHVYDKINGVWNLSSDQGNLGTFFITNVRIVWHANMNDSFNVSIPYLQIRSIKIRDSKFGLALVIESSQQSGGYVLGFKIDPVEKLQESVKEINSLHEVYSASPIFGVDYEMEEKPQPLEALTVEQIQDDVEIDSDGHTDAFVAYFADGNKQQDREPVFSEELGLAIEKLKDGFTLQGLWEVMS", "note": "[K255E]", "effect of a mutation on the interaction": "with no effect"}
{"variant": "MSVLDALWEDRDVRFDLSAQQMKTRPGEVLIDCLDSIEDTKGNNGDRGRLLVTNLRILWHSLALSRVNVSVGYNCILNITTRTANSKLRGQTEALYILTKCNSTRFEFIFTNLVPGSPRLFTSVMAVHRAYETSKMYRDFKLRSALIQNKQLRLLPQEHVYDKINGVWNLSSDQGNLGTFFITNVRIVWHANMNDSFNVSIPYLQIRSIKIRDSKFGLALVIESSQQSGGYVLGFKIDPVEKLQESVKEINSLHAVYSASPIFGVDYEMEEKPQPLEALTVEQIQDDVEIDSDGHTDAFVAYFADGNKQQDREPVFSEELGLAIEKLKDGFTLQGLWEVMS", "note": "[K255A]", "effect of a mutation on the interaction": "with no effect"}
{"variant": "MSVLDALWEDRDVRFDLSAQQMKTRPGEVLIDCLDSIEDTKGNNGDRGRLLVTNLRILWHSLALSRVNVSVGYNCILNITTRTANSKLRGQTEALYILTKCNSTRFEFIFTNLVPGSPRLFTSVMAVHRAYETSKMYRDFKLRSALIQNKQLRLLPQEHVYDKINGVWNLSSDQGNLGTFFITNVRIVWHANMNDSFNVSIPYLQIRSIKIRDSKFGLALVIESSQQSGGYVLGFKIDPVEKLQESVKEINSLHKVASASPIFGVDYEMEEKPQPLEALTVEQIQDDVEIDSDGHTDAFVAYFADGNKQQDREPVFSEELGLAIEKLKDGFTLQGLWEVMS", "note": "[Y257A]", "effect of a mutation on the interaction": "with no effect"}
{"variant": "MSVLDALWEDRDVRFDLSAQQMKTRPGEVLIDCLDSIEDTKGNNGDRGRLLVTNLRILWHSLALSRVNVSVGYNCILNITTRTANSKLRGQTEALYILTKCNSTRFEFIFTNLVPGSPRLFTSVMAVHRAYETSKMYRDFKLRSALIQNKQLRLLPQEHVYDKINGVWNLSSDQGNLGTFFITNVRIVWHANMNDSFNVSIPYLQIRSIKIRDSKFGLALVIESSQQSGGYVLGFKIDPVEKLQESVKEINSLKKVYSASPIFGVDYEMEEKPQPLEALTVEQIQDDVEIDSDGHTDAFVAYFADGNKQQDREPVFSEELGLAIEKLKDGFTLQGLWEVMS", "note": "[H254K]", "effect of a mutation on the interaction": "with no effect"}
{"variant": "MSVLDALWEDRDVRFDLSAQQMKTRPGEVLIDCLDSIEDTKGNNGDRGRLLVTNLRILWHSLALSRVNVSVGYNCILNITTRTANSKLRGQTEALYILTKCNSTRFEFIFTNLVPGSPRLFTSVMAVHRAYETSKMYRDFKLRSALIQNKQLRLLPQEHVYDKINGVWNLSSDQGNLGTFFITNVRIVWHANMNDSFNVSIPYLQIRSIKIRDSKFGLALVIESSQQSGGYVLGFKIDPVEKLQESVKEINSLEKVYSASPIFGVDYEMEEKPQPLEALTVEQIQDDVEIDSDGHTDAFVAYFADGNKQQDREPVFSEELGLAIEKLKDGFTLQGLWEVMS", "note": "[H254E]", "effect of a mutation on the interaction": "with no effect"}
{"variant": "MSVLDALWEDRDVRFDLSAQQMKTRPGEVLIDCLDSIEDTKGNNGDRGRLLVTNLRILWHSLALSRVNVSVGYNCILNITTRTANSKLRGQTEALYILTKCNSTRFEFIFTNLVPGSPRLFTSVMAVHRAYETSKMYRDFKLRSALIQNKQLRLLPQEHVYDKINGVWNLSSDQGNLGTFFITNVRIVWHANMNDSFNVSIPYLQIRSIKIRDSKFGLALVIESSQQSGGYVLGFKIDPVEKLQESVKEINSLAKVYSASPIFGVDYEMEEKPQPLEALTVEQIQDDVEIDSDGHTDAFVAYFADGNKQQDREPVFSEELGLAIEKLKDGFTLQGLWEVMS", "note": "[H254A]", "effect of a mutation on the interaction": "with no effect"}
